Data as given in IntAct's records for PubMed 31515488.

B1: Zinc finger protein 473 (Homo sapiens), Q8WTR7 (parent)
chain: MAEEFVTLKDVGMDFTLGDWEQLGLEQGDTFWDTALDNCQDLFLLDPPRPNLTSHPDGSEDLEPLAGGSPEATSPDVTETKNSPLMEDFFEEGFSQEIIEMLSKDGFWNSNFGEACIEDTWLDSLLGDPESLLRSDIATNGESPTECKSHELKRGLSPVSTVSTGEDSMVHNVSEKTLTPAKSKEYRGEFFSYSDHSQQDSVQEGEKPYQCSECGKSFSGSYRLTQHWITHTREKPTVHQECEQGFDRNASLSVYPKTHTGYKFYVCNEYGTTFSQSTYLWHQKTHTGEKPCKSQDSDHPPSHDTQPGEHQKTHTDSKSYNCNECGKAFTRIFHLTRHQKIHTRKRYECSKCQATFNLRKHLIQHQKTHAAKTTSECQECGKIFRHSSLLIEHQALHAGEEPYKCNERGKSFRHNSTLKIHQRVHSGEKPYKCSECGKAFHRHTHLNEHRRIHTGYRPHKCQECVRSFSRPSHLMRHQAIHTAEKPYSCAECKETFSDNNRLVQHQKMHTVKTPYECQECGERFICGSTLKCHESVHAREKQGFFVSGKILDQNPEQKEKCFKCNKCEKTFSCSKYLTQHERIHTRGVKPFECDQCGKAFGQSTRLIHHQRIHSRVRLYKWGEQGKAISSASLIKLQSFHTKEHPFKCNECGKTFSHSAHLSKHQLIHAGENPFKCSKCDRVFTQRNYLVQHERTHARKKPLVCNECGKTFRQSSCLSKHQRIHSGEKPYVCDYCGKAFGLSAELVRHQRIHTGEKPYVCQECGKAFTQSSCLSIHRRVHTGEKPYRCGECGKAFAQKANLTQHQRIHTGEKPYSCNVCGKAFVLSAHLNQHLRVHTQETLYQCQRCQKAFRCHSSLSRHQRVHNKQQYCL
partner: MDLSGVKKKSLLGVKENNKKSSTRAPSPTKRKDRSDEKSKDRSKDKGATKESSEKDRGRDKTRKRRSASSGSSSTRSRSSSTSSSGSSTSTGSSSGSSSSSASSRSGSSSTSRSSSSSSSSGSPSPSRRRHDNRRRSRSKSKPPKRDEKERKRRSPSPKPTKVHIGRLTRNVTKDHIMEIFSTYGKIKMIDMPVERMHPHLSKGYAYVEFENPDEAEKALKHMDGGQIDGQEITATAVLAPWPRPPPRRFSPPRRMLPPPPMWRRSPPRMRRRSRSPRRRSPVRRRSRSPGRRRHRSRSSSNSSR
B2: LIM/homeobox protein Lhx4 (Homo sapiens), Q969G2 (parent)
chain: MMQSATVPAEGAVKGLPEMLGVPMQQIPQCAGCNQHILDKFILKVLDRHWHSSCLKCADCQMQLADRCFSRAGSVYCKEDFFKRFGTKCTACQQGIPPTQVVRKAQDFVYHLHCFACIICNRQLATGDEFYLMEDGRLVCKEDYETAKQNDDSEAGAKRPRTTITAKQLETLKNAYKNSPKPARHVREQLSSETGLDMRVVQVWFQNRRAKEKRLKKDAGRHRWGQFYKSVKRSRGSSKQEKESSAEDCGVSDSELSFREDQILSELGHTNRIYGNVGDVTGGQLMNGSFSMDGTGQSYQDLRDGSPYGIPQSPSSISSLPSHAPLLNGLDYTVDSNLGIIAHAGQGVSQTLRAMAGGPTSDISTGSSVGYPDFPTSPGSWLDEMDHPPF
partner: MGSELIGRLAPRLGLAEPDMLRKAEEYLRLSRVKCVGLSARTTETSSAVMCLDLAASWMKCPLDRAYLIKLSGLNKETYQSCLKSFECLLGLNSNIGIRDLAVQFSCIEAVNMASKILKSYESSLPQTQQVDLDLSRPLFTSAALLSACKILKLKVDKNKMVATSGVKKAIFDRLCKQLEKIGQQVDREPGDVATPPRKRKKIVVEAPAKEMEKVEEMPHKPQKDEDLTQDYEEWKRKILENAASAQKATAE
B3: Mothers against decapentaplegic homolog 4 (Homo sapiens), Q13485 (parent)
chain: MDNMSITNTPTSNDACLSIVHSLMCHRQGGESETFAKRAIESLVKKLKEKKDELDSLITAITTNGAHPSKCVTIQRTLDGRLQVAGRKGFPHVIYARLWRWPDLHKNELKHVKYCQYAFDLKCDSVCVNPYHYERVVSPGIDLSGLTLQSNAPSSMMVKDEYVHDFEGQPSLSTEGHSIQTIQHPPSNRASTETYSTPALLAPSESNATSTANFPNIPVASTSQPASILGGSHSEGLLQIASGPQPGQQQNGFTGQPATYHHNSTTTWTGSRTAPYTPNLPHHQNGHLQHHPPMPPHPGHYWPVHNELAFQPPISNHPAPEYWCSIAYFEMDVQVGETFKVPSSCPIVTVDGYVDPSGGDRFCLGQLSNVHRTEAIERARLHIGKGVQLECKGEGDVWVRCLSDHAVFVQSYYLDREAGRAPGDAVHKIYPSAYIKVFDLRQCHRQMQQQAATAQAAAAAQAAAVAGNIPGPGSVGGIAPAISLSAAAGIGVDDLRRLCILRMSFVKGWGPDYPRQSIKETPCWIEIHLHRALQLLDEVLHTMPIADPQPLD
partner: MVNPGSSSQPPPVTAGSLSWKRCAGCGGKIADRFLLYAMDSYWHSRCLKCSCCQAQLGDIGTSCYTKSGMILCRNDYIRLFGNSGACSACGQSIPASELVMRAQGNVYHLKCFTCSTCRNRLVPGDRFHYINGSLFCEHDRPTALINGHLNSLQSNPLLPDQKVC

Variants of: B1
Details: with rnps1_human RNPS1, Q15287

Row | Variant | effect of a mutation on the interaction
1 | E309G | with no effect
2 | T164M | with no effect
3 | R223C | with no effect

Variants of: B2
Details: with orc6_human ORC6, Q9Y5N6

Row | Variant | effect of a mutation on the interaction
4 | N328S | with no effect

Variants of: B3
Details: with lmo4_human LMO4, P61968

Row | Variant | effect of a mutation on the interaction
5 | G352R | with no effect
6 | Y353S | with no effect
7 | E330K | with no effect
8 | N13S | with no effect
9 | L533R | with no effect
10 | R361C | with no effect
11 | C324R | disrupting interaction strength
12 | V350D | disrupting interaction strength
